Source: article PMC5430726 (2017)

Biological target: T1, SLP65 peptide (Homo sapiens, UniProt Q8WV28)
T1 chain: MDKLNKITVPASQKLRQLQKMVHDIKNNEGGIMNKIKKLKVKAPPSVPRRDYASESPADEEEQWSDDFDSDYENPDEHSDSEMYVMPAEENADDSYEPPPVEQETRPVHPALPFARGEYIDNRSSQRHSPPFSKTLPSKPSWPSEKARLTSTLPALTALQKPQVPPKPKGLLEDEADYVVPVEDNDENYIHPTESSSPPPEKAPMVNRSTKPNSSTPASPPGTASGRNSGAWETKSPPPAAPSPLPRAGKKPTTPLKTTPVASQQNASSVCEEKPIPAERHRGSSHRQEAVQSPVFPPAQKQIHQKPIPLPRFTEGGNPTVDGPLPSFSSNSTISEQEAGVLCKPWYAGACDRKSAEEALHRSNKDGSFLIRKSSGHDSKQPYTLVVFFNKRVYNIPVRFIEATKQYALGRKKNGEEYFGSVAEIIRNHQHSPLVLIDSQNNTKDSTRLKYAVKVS
Assay: ITC

- Kd: 33.3 µM
B1: Grb2 SH3C (protein)
chain: QQPTYVQALFDFDPQEDGELGFRRGDFIHVMDNSDPNWWKGACHGQTGMFPRNYVTPVNR
modifications: Grb2 SH3C pre-bound to Vav SH3N
